Laboratory results published in patent US20250339569A1 (3B PHARMACEUTICALS, published 2025).
Starred links: 1 amine or outer side, 2 acyl side, 3 side chain; linkers in the order of their positions; H or OH if unused. Positions of bridges follow the written chain, without caps; N, C: chain ends. Non-standard residues stand in square brackets, D forms with d. Groups on a side chain read outwards from the residue. Primed or numbered codes have the meaning given here. ξ: configuration not given here. *: point of attachment. Af3(HySuc) = 3-amino-L-phenylalanine acylated on the ring amine with 2-(3,6-dioxo-1,2,3,6-tetrahydropyridazin-4-yl)acetic acid, O=C(Cc1cc(=O)[nH][nH]c1=O)Nc1cccc(C[C@H](N[*:1])C(=O)[*:2])c1; af3(ac-glu) = lower case: 3-amino-D-phenylalanine, ring amine acylated with N-acetyl-D-glutamic acid, CC(=O)N[C@H](CCC(=O)[*:3])C(=O)Nc1cccc(C[C@@H](N[*:1])C(=O)[*:2])c1; af3(ac-asp) = lower case: 3-amino-D-phenylalanine, ring amine acylated with N-acetyl-D-aspartic acid, CC(=O)N[C@H](CC(=O)[*:3])C(=O)Nc1cccc(C[C@@H](N[*:1])C(=O)[*:2])c1; Af3(MSAc) = 3-aminophenylalanine with 2-methanesulfonylacetyl on the ring amine, CS(=O)(=O)CC(=O)Nc1cccc(C[C@H](N[*:1])C(=O)[*:2])c1; Af3(Iva) = 3-aminophenylalanine with isovaleryl on the ring amine, CC(C)CC(=O)Nc1cccc(C[C@H](N[*:1])C(=O)[*:2])c1; Af3(Ac-Asp) = 3-aminophenylalanine acylated on the ring amine with N-acetyl-aspartic acid; DOTA(In) = O=C1CN2CCN3CCN(CC(=O)*)CCN(CC2)CC(=O)[O][In]([O]1)[O]C(=O)C3; APAc″ = 2-(4-(amino)piperidin-1-yl)acetic acid, NC1CCN(CC(=O)*)CC1; DOTA = O=C(O)CN1CCN(CC(=O)O)CCN(CC(=O)*)CCN(CC(=O)O)CC1; Trp(5-Cl) = N[C@@H](Cc1c[nH]c2ccc(Cl)cc12)C(=O)O; Phe(3,4-Cl2) = N[C@@H](Cc1ccc(Cl)c(Cl)c1)C(=O)O; Phe(3-CF3) = N[C@@H](Cc1cccc(C(F)(F)F)c1)C(=O)O; ξTrp(7-Me) = Cc1cccc2c(CC(N)C(=O)O)c[nH]c12; ξTrp(1-Me) = Cn1cc(CC(N)C(=O)O)c2ccccc21; Ttds(3) = NCCCOCCOCCOCCCNC(=O)CCC(=O)*; dmo = (R)-dimethylornithine (D form); mXylylene = c1cc(C[*:1])cc(C[*:2])c1; Orn(Me2) = CN(C)CCC[C@H](N)C(=O)O; Isovaleryl = CC(C)CC(=O)*; dPip = O=C(O)[C@H]1CCCCN1; hSer = N[C@@H](CCO)C(=O)O; AGLU′ = not defined here; Ac6c = NC1(C(=O)O)CCCCC1; Nle = CCCC[C@H](N)C(=O)O; dNMeA = CN[C@H](C)C(=O)O; 4Amc = not defined here; APAc = not defined here; Apr = not defined here; Dap = NC[C@H](N)C(=O)O; AEEA = NCCOCCOCC(=O)O; Sar = CNCC(=O)O

B1: 3BP-3859 (peptide)
peptide: {DOTA}-YCE[dP]DWLTWSC-NH2
modifications: linker 2-11 via mXylylene
SMILES: CC(C)C[C@@H]1NC(=O)[C@H](Cc2c[nH]c3ccccc23)NC(=O)[C@H](CC(=O)O)NC(=O)[C@H]2CCCN2C(=O)[C@H](CCC(=O)O)NC(=O)[C@@H](NC(=O)[C@H](Cc2ccc(O)cc2)NC(=O)CN2CCN(CC(=O)O)CCN(CC(=O)O)CCN(CC(=O)O)CC2)CSCc2cccc(c2)CSC[C@@H](C(N)=O)NC(=O)[C@H](CO)NC(=O)[C@H](Cc2c[nH]c3ccccc23)NC(=O)[C@H]([C@@H](C)O)NC1=O
B2: 3BP-3289 (peptide)
peptide: Ac-VYCE[Sar]D[Trp(5-Cl)]LTWQC-NH2
modifications: linker 3-12 via mXylylene
SMILES: CC(=O)N[C@H](C(=O)N[C@@H](Cc1ccc(O)cc1)C(=O)N[C@H]1CSCc2cccc(c2)CSC[C@@H](C(N)=O)NC(=O)[C@H](CCC(N)=O)NC(=O)[C@H](Cc2c[nH]c3ccccc23)NC(=O)[C@H]([C@@H](C)O)NC(=O)[C@H](CC(C)C)NC(=O)[C@H](Cc2c[nH]c3ccc(Cl)cc23)NC(=O)[C@H](CC(=O)O)NC(=O)CN(C)C(=O)[C@H](CCC(=O)O)NC1=O)C(C)C
B3: 3BP-3281 (peptide)
peptide: Ac-VYCE[dNMeA]DWLTWAC-NH2
modifications: linker 3-12 via mXylylene
SMILES: CC(=O)N[C@H](C(=O)N[C@@H](Cc1ccc(O)cc1)C(=O)N[C@H]1CSCc2cccc(c2)CSC[C@@H](C(N)=O)NC(=O)[C@H](C)NC(=O)[C@H](Cc2c[nH]c3ccccc23)NC(=O)[C@H]([C@@H](C)O)NC(=O)[C@H](CC(C)C)NC(=O)[C@H](Cc2c[nH]c3ccccc23)NC(=O)[C@H](CC(=O)O)NC(=O)[C@@H](C)N(C)C(=O)[C@H](CCC(=O)O)NC1=O)C(C)C
B4: 3BP-3283 (peptide)
peptide: Ac-VYCE[dPip]DWLTWAC-NH2
modifications: linker 3-12 via mXylylene
SMILES: CC(=O)N[C@H](C(=O)N[C@@H](Cc1ccc(O)cc1)C(=O)N[C@H]1CSCc2cccc(c2)CSC[C@@H](C(N)=O)NC(=O)[C@H](C)NC(=O)[C@H](Cc2c[nH]c3ccccc23)NC(=O)[C@H]([C@@H](C)O)NC(=O)[C@H](CC(C)C)NC(=O)[C@H](Cc2c[nH]c3ccccc23)NC(=O)[C@H](CC(=O)O)NC(=O)[C@H]2CCCCN2C(=O)[C@H](CCC(=O)O)NC1=O)C(C)C
B5: 3BP-4253 (peptide)
peptide: {DOTA}-DCE[dP]DWLTW[Dap]C-NH2
modifications: lactam 10-1; linker 2-11 via mXylylene
SMILES: CC(C)C[C@@H]1NC(=O)[C@H](Cc2c[nH]c3ccccc23)NC(=O)[C@H](CC(=O)O)NC(=O)[C@H]2CCCN2C(=O)[C@H](CCC(=O)O)NC(=O)[C@@H]2CSCc3cccc(c3)CSC[C@@H](C(N)=O)NC(=O)[C@H](CNC(=O)C[C@H](NC(=O)CN3CCN(CC(=O)O)CCN(CC(=O)O)CCN(CC(=O)O)CC3)C(=O)N2)NC(=O)[C@H](Cc2c[nH]c3ccccc23)NC(=O)[C@H]([C@@H](C)O)NC1=O

How the values were obtained:
[1] = molecular target: T1, Fc-fusion protein of human carbonic anhydrase IX (human, UniProt Q16790 38-414); assay: SPR, captured hCAIX-Fc; pKD category A: >8.0
Description: (§1) Stock solutions of test compounds were prepared by dissolving each compound in DMSO. DMSO stock solution were diluted 1:1000 in Running Buffer without DMSO. […] SPR binding analyses were performed in Single Cycle Kinetic (SCK) mode at 25° C.
(§2) For each test compound, SPR raw data in the form of resonance units (RU) were plotted as sensorgrams using the Biacore™ T200 control software. The signal from the blank sensorgram was subtracted from that of the test compound sensorgram (blank corrected). The blank corrected sensorgram was corrected for baseline drift by subtracting the sensorgram of a SCK run without the test compound (running buffer only). […] Raw data and fit results were imported as text files in IDBS. The pKD value (negative decadic logarithm of dissociation constant) was calculated in the IDBS excel template.

[2] = molecular target: T1, Fc-fusion protein of human carbonic …; assay: SPR, captured hCAIX-Fc; t1/2 category B: 5.1-15.0 min
Description: as §1, §2

Binder	pKD [1]	t1/2 (half-life of the complex, SPR) [2]
{DOTA-APAc″}-VYCE[dP]D[ξTrp(7-Me)]LTWSC-NH2 (linker 3-12 via mXylylene; not fully specified) [3BP-4158]	> 8 pkd	5.1 to 15 min
{DOTA-APAc}-V[Orn(Me2)]CE[dP]DWLTWSC-NH2 (linker 3-12 via mXylylene; reading uncertain) [3BP-4095]	> 8 pkd	5.1 to 15 min
{DOTA-Ttds(3)}-[Nle]YCE[dP]DWLTWSC-NH2 (linker 3-12 via mXylylene) [3BP-3870]	> 8 pkd	5.1 to 15 min
{DOTA-4Amc}-YCE[dP]DWLTWSC-NH2 (linker 2-11 via mXylylene; reading uncertain) [3BP-3868]	> 8 pkd	5.1 to 15 min
{DOTA-APAc″}-VYCE[dP]D[af3(ac-glu)]LTWSC-NH2 (linker 3-12 via mXylylene; not fully specified) [3BP-4362]	> 8 pkd	5.1 to 15 min
{DOTA-APAc″}-VYCE[dP]D[Af3(Iva)]LTWSC-NH2 (linker 3-12 via mXylylene) [3BP-4236]	> 8 pkd	5.1 to 15 min
B1	> 8 pkd	5.1 to 15 min
Isovaleryl-YCE[dP]DWLTWE([Apr-AEEA-DOTA])C-NH2 (linker 2-11 via 3MeBn; reading uncertain) [3BP-3740]	> 8 pkd	5.1 to 15 min
{DOTA(In)}-YCE[dP]KWLEWSC-NH2 (linker 2-11 via mXylylene; lactam 5-8; also: indium complexed by DOTA) [3BP-4053]	> 8 pkd	5.1 to 15 min
{DOTA-APAc}-VYC[Orn(Me2)][dP]DWLTWSC-NH2 (linker 3-12 via mXylylene; reading uncertain) [3BP-4096]	> 8 pkd	5.1 to 15 min
B2	> 8 pkd	5.1 to 15 min
B3	> 8 pkd	5.1 to 15 min
{DOTA-APAc}-VYCE[dmo]DWLTWSC-NH2 (linker 3-12 via mXylylene; reading uncertain) [3BP-4097]	> 8 pkd	5.1 to 15 min
{DOTA-APAc}-VYCE[dP]D[Phe(3-CF3)]LTWSC-NH2 (linker 3-12 via mXylylene; not fully specified; reading uncertain) [3BP-4135]	> 8 pkd	5.1 to 15 min
{DOTA-APAc}-VYCE[dP]D[Phe(3,4-Cl2)]LTWSC-NH2 (linker 3-12 via mXylylene; not fully specified; reading uncertain) [3BP-4133]	> 8 pkd	5.1 to 15 min
{DOTA-APAc}-VYCE[dE](AGLU′)DWLTWSC-NH2 (linker 3-12 via mXylylene; reading uncertain) [3BP-4119]	> 8 pkd	5.1 to 15 min
Ac-K(DOTA)VYCE[dP]DWLTWSC-NH2 (linker 4-13 via 3MeBn) [3BP-3840]	> 8 pkd	5.1 to 15 min
{DOTA-APAc″}-VYCE[dP]D[Af3(MSAc)]LTWSC-NH2 (linker 3-12 via mXylylene) [3BP-4242]	> 8 pkd	5.1 to 15 min
{DOTA-APAc″}-VYCE[dP]D[Af3(HySuc)]LTWSC-NH2 (linker 3-12 via mXylylene) [3BP-4322]	> 8 pkd	5.1 to 15 min
{DOTA-APAc}-VYCE[dP]DW[Ac6c]TWSC-NH2 (linker 3-12 via mXylylene; reading uncertain) [3BP-3584]	> 8 pkd	5.1 to 15 min
{DOTA-APAc″}-VYCE[dP]D[ξTrp(1-Me)]LTWSC-NH2 (linker 3-12 via mXylylene; not fully specified) [3BP-4144]	> 8 pkd	5.1 to 15 min
{DOTA-APAc}-VYC[hSer][dP]DWLTWSC-NH2 (linker 3-12 via mXylylene; reading uncertain) [3BP-4101]	> 8 pkd	5.1 to 15 min
{DOTA-APAc″}-VYCE[dP]D[af3(ac-asp)]LTWSC-NH2 (linker 3-12 via mXylylene; not fully specified) [3BP-4364]	> 8 pkd	5.1 to 15 min
B4	> 8 pkd	5.1 to 15 min
B5	> 8 pkd	5.1 to 15 min
{DOTA-APAc″}-VYCE[dP]D[Af3(Ac-Asp)]LTWSC-NH2 (linker 3-12 via mXylylene) [3BP-4363]	> 8 pkd	5.1 to 15 min
